In US10239937:

Legend:
[1] = target: C3 fragments (iC3b, C3dg and C3d) of human complement component C3, deposited on cells or tissue (human) (UniProt P01024); assay: flow cytometry, rabbit RBCs + human serum + TT30 1.4 µM, time 0, panel A5-1-0; isotype control for anti-C3d [Time: 0]
TT30 (human) [2] = assay: flow cytometry, rabbit RBCs + human serum + TT30 1.4 µM, time 0, panel A5-2-0; isotype control for HB5 [Time: 0]
TT30 (human) [3] = assay: flow cytometry, rabbit RBCs + human serum + TT30 0.46 µM, 2 hr, panel A8-2-2; isotype control for HB5 [Time: 2 hr]
TT30 (human) [4] = assay: flow cytometry, rabbit RBCs + human serum + TT30 0.46 µM, 4 hr, panel A8-4-2; isotype control for HB5 [Time: 4 hr]
TT30 (human) [5] = assay: flow cytometry, rabbit RBCs + human serum + TT30 0.46 µM, 24 hr, panel A8-24-2; isotype control for HB5 [Time: 24 hr]
[6] = target: C3 fragments (iC3b, C3dg and C3d) of human complement component C3, deposited on cells or tissue (human) (UniProt P01024); assay: flow cytometry, rabbit RBCs + human serum, no TT30, panel A12-2-0
[7] = target: C3 fragments (iC3b, C3dg and C3d) of human complement component C3, deposited on cells or tissue (human) (UniProt P01024); assay: flow cytometry, rabbit RBCs + human serum, no TT30, panel A12-3-0
[8] = target: C3 fragments (iC3b, C3dg and C3d) of human complement component C3, deposited on cells or tissue (human) (UniProt P01024); assay: flow cytometry, rabbit RBCs + human serum + TT30 1.4 µM, time 0, panel A5-2-0 [Time: 0]
[9] = target: C3 fragments (iC3b, C3dg and C3d) of human complement component C3, deposited on cells or tissue (human) (UniProt P01024); assay: flow cytometry, rabbit RBCs + human serum + TT30 1.4 µM, time 0, panel A5-3-0 [Time: 0]
[10] = target: C3 fragments (iC3b, C3dg and C3d) of human complement component C3, deposited on cells or tissue (human) (UniProt P01024); assay: flow cytometry, rabbit RBCs + human serum + TT30 0.46 µM, time 0, panel A8-2-0 [Time: 0]
[11] = target: C3 fragments (iC3b, C3dg and C3d) of human complement component C3, deposited on cells or tissue (human) (UniProt P01024); assay: flow cytometry, rabbit RBCs + human serum + TT30 0.46 µM, time 0, panel A8-3-0 [Time: 0]
[12] = target: C3 fragments (iC3b, C3dg and C3d) of human complement component C3, deposited on cells or tissue (human) (UniProt P01024); assay: flow cytometry, rabbit RBCs + human serum + TT30 0.06 µM, time 0, panel A11-2-0 [Time: 0]
[13] = target: C3 fragments (iC3b, C3dg and C3d) of human complement component C3, deposited on cells or tissue (human) (UniProt P01024); assay: flow cytometry, rabbit RBCs + human serum + TT30 0.06 µM, time 0, panel A11-3-0 [Time: 0]
[14] = target: C3 fragments (iC3b, C3dg and C3d) of human complement component C3, deposited on cells or tissue (human) (UniProt P01024); assay: flow cytometry, rabbit RBCs + human serum + TT30 0.46 µM, 2 hr, panel A8-2-2 [Time: 2 hr]
[15] = target: C3 fragments (iC3b, C3dg and C3d) of human complement component C3, deposited on cells or tissue (human) (UniProt P01024); assay: flow cytometry, rabbit RBCs + human serum + TT30 0.46 µM, 2 hr, panel A8-2-3 [Time: 2 hr]
[16] = target: C3 fragments (iC3b, C3dg and C3d) of human complement component C3, deposited on cells or tissue (human) (UniProt P01024); assay: flow cytometry, rabbit RBCs + human serum + TT30 0.46 µM, 4 hr, panel A8-4-2 [Time: 4 hr]
[17] = target: C3 fragments (iC3b, C3dg and C3d) of human complement component C3, deposited on cells or tissue (human) (UniProt P01024); assay: flow cytometry, rabbit RBCs + human serum + TT30 0.46 µM, 4 hr, panel A8-4-3 [Time: 4 hr]
[18] = target: C3 fragments (iC3b, C3dg and C3d) of human complement component C3, deposited on cells or tissue (human) (UniProt P01024); assay: flow cytometry, rabbit RBCs + human serum + TT30 0.46 µM, 24 hr, panel A8-24-2 [Time: 24 hr]
[19] = target: C3 fragments (iC3b, C3dg and C3d) of human complement component C3, deposited on cells or tissue (human) (UniProt P01024); assay: flow cytometry, rabbit RBCs + human serum + TT30 0.46 µM, 24 hr, panel A8-24-3 [Time: 24 hr]
[20] = target: C3 fragments (iC3b, C3dg and C3d) of human complement component C3, deposited on cells or tissue (human) (UniProt P01024); assay: flow cytometry, rabbit RBCs + human serum + TT30 3.7 µM, time 0, panel A2-2-0; filing: no C3 fragments or TT30 on the cells at this concentration [Time: 0]
[21] = target: C3 fragments (iC3b, C3dg and C3d) of human complement component C3, deposited on cells or tissue (human) (UniProt P01024); assay: flow cytometry, rabbit RBCs + human serum + TT30 3.7 µM, time 0, panel A2-3-0; filing: no C3 fragments or TT30 on the cells at this concentration [Time: 0]

Sequence of TT30 (human) (chain, as listed by the source limits assumed): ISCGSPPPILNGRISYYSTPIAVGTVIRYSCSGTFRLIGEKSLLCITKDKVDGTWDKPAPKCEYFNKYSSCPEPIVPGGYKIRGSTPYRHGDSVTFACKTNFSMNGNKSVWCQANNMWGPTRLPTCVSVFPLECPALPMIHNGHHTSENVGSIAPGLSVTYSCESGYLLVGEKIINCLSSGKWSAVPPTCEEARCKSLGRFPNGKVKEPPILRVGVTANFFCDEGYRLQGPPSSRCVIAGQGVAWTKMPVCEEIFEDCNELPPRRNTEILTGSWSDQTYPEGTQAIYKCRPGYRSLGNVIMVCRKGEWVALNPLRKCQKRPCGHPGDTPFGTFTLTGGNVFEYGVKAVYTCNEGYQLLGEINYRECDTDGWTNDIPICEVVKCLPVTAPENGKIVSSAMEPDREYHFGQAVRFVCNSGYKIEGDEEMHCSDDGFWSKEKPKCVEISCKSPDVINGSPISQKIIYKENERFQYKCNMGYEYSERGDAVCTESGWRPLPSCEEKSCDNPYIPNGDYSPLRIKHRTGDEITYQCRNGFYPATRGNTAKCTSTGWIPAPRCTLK
Sequence of UniProt P01024 (P01024 1002-1303 limits assumed): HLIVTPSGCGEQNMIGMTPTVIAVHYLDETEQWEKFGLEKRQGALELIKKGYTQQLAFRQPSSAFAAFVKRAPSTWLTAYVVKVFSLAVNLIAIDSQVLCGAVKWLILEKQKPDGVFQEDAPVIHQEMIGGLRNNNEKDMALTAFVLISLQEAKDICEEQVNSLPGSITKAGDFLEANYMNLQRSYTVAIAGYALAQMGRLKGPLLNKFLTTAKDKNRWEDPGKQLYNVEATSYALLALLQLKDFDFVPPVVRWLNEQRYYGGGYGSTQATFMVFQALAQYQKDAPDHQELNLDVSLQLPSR

Substance: IgG1-APC (antibody)
- % of gated cells in Q4-UR (IgG1-APC+, HB5-FITC+) [1]: 0.4%

Substance: IgG2a-FITC (antibody)
- % of gated cells in Q4-LR (C3d-APC-, IgG2a-FITC+) (TT30 (human) [2]): 0.5%
- % of gated cells in Q4-LR (C3d-APC-, IgG2a-FITC+) (TT30 (human) [3]): 0.3%
- % of gated cells in Q4-UR (C3d-APC+, IgG2a-FITC+) (TT30 (human) [3]): 0.3%
- % of gated cells in Q4-LR (C3d-APC-, IgG2a-FITC+) (TT30 (human) [4]): 0.3%
- % of gated cells in Q4-LR (C3d-APC-, IgG2a-FITC+) (TT30 (human) [5]): 0.3%
- % of gated cells in Q4-UR (C3d-APC+, IgG2a-FITC+) (TT30 (human) [5]): 0.3%

Substance: C3d (A702)-APC (antibody)
- % of gated cells in Q4-UL (C3d-APC+, IgG2a-FITC-) [6]: 100%
- % of gated cells in Q4-UR (C3d-APC+, IgG2a-FITC+) [6]: 0%
- % of gated cells in Q4-UL (C3d-APC+, HB5-FITC-) [7]: 94.9%
- % of gated cells in Q4-UR (C3d-APC+, HB5-FITC+) [7]: 2.6%
- % of gated cells in Q4-UL (C3d-APC+, IgG2a-FITC-) [8]: 84.9%
- % of gated cells in Q4-UR (C3d-APC+, IgG2a-FITC+) [8]: 0%
- % of gated cells in Q4-UL (C3d-APC+, HB5-FITC-) [9]: 81%
- % of gated cells in Q4-UR (C3d-APC+, HB5-FITC+) [9]: 4%
- % of gated cells in Q4-UL (C3d-APC+, IgG2a-FITC-) [10]: 84.8%
- % of gated cells in Q4-UR (C3d-APC+, IgG2a-FITC+) [10]: 0%
- % of gated cells in Q4-UL (C3d-APC+, HB5-FITC-) [11]: 11.5%
- % of gated cells in Q4-UR (C3d-APC+, HB5-FITC+) [11]: 69.8%
- % of gated cells in Q4-UL (C3d-APC+, IgG2a-FITC-) [12]: 90.3%
- % of gated cells in Q4-UR (C3d-APC+, IgG2a-FITC+) [12]: 0%
- % of gated cells in Q4-UL (C3d-APC+, HB5-FITC-) [13]: 78.9%
- % of gated cells in Q4-UR (C3d-APC+, HB5-FITC+) [13]: 5.3%
- % of gated cells in Q4-UL (C3d-APC+, IgG2a-FITC-) [14]: 89.8%
- % of gated cells in Q4-UR (C3d-APC+, IgG2a-FITC+) [14]: 0.3%
- % of gated cells in Q4-UL (C3d-APC+, HB5-FITC-) [15]: 25.3%
- % of gated cells in Q4-UR (C3d-APC+, HB5-FITC+) [15]: 67.5%
- % of gated cells in Q4-UL (C3d-APC+, IgG2a-FITC-) [16]: 93.4%
- % of gated cells in Q4-UR (C3d-APC+, IgG2a-FITC+) [16]: 0%
- % of gated cells in Q4-UL (C3d-APC+, HB5-FITC-) [17]: 38.2%
- % of gated cells in Q4-UR (C3d-APC+, HB5-FITC+) [17]: 54.7%
- % of gated cells in Q4-UL (C3d-APC+, IgG2a-FITC-) [18]: 97.9%
- % of gated cells in Q4-UR (C3d-APC+, IgG2a-FITC+) [18]: 0.3%
- % of gated cells in Q4-UL (C3d-APC+, HB5-FITC-) [19]: 51.7%
- % of gated cells in Q4-UR (C3d-APC+, HB5-FITC+) [19]: 44.4%
- % of gated cells in Q4-UL (C3d-APC+, IgG2a-FITC-) [20]: 2.4%
- % of gated cells in Q4-UR (C3d-APC+, IgG2a-FITC+) [20]: 0%
- % of gated cells in Q4-UL (C3d-APC+, HB5-FITC-) [21]: 0%
- % of gated cells in Q4-UR (C3d-APC+, HB5-FITC+) [21]: 0%
